{
  "source": "paper PMC3540977",
  "about": "(Peptides, 2012)",
  "test_system": "bovine brain microvessel endothelial cells (BBMECs)",
  "assay": "Metabolism of Dyn A 1–17 in the presence of BBMECs",
  "type": "in vitro ADME",
  "settings": "incubation with bovine brain microvessel endothelial cells, LC-MS/MS",
  "data": [
    {"substance": "Dynorphin A 1–17 [Dyn A 1–17]", "values": [
      {"measurement": "metabolite identified in the presence of BBMECs", "value": "Dyn A 1–6 is identified as a metabolite"}
    ]}
  ]
}
